One assay concerns the target C149-mut-8C11. Kind of assay: dot blot of E. coli lysate supernatant.
A further assay has as its target 7-peptide PVQMPWL. Kind of assay: phage display panning on coated MAb; 1 clone.
The target in the next assay is 7-peptide ITNDFKQ. Kind of assay: phage display panning on coated MAb; 1 clone.
In the next assay the target is 7-peptide SLPTLTL. In words: phage display panning on coated MAb; 1 clone.
In a further assay the target is 7-peptide HPTLLRI. In words: phage display panning on coated MAb; 5 clones.
The target in a further assay is 7-peptide SLVTGIL. In words: phage display panning on coated MAb; 1 clone.
The next assay addresses 7-peptide VSWNSLV. In words: phage display panning on coated MAb; 1 clone.
A further assay concerns the target 7-peptide NHWASPR. In words: phage display panning on coated MAb; 1 clone.
Another assay addresses 7-peptide SSYEWFI. Kind of assay: phage display panning on coated MAb; 1 clone.
The next assay has as its target 7-peptide SAPSSKN. Kind of assay: phage display panning on coated MAb; 1 clone.
The target of the next assay is 7-peptide INQKPTL. Kind of assay: phage display panning on coated MAb; 1 clone.
The next assay has as its target 7-peptide SSMFFYR. Kind of assay: phage display panning on coated MAb; 1 clone.
In the next assay the target is 7-peptide YQDSAKT. Kind of assay: phage display panning on coated MAb; 2 clones.
In a further assay the target is polypeptide 209 (hepatitis E virus). In words: ELISA with 8C11. (In an ELISA, binding on a coated surface is turned into a signal by an enzyme label.)
The target in the next assay is T1, C149-mut-8H3.
T1 chain: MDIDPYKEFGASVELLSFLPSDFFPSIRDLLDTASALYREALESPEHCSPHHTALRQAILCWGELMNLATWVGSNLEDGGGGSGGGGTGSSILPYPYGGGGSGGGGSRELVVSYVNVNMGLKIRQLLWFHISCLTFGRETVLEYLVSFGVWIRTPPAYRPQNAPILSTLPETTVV
In words: dot blot of E. coli lysate supernatant.

In the next assay the target is 7-peptide STLFMNF. Kind of assay: phage display panning on coated MAb; 1 clone.
For a further assay, the target named is 7-peptide SAHVLST. Kind of assay: phage display panning on coated MAb; 1 clone.
In the next assay the target is 7-peptide SPPNVRT. In words: phage display panning on coated MAb; 1 clone.
The next assay addresses 7-peptide SPKMPIL. Kind of assay: phage display panning on coated MAb; 1 clone.
The target of the next assay is 7-peptide ALWGPTS. Kind of assay: phage display panning on coated MAb; 2 clones.

B1: monoclonal antibody 8C11 (antibody, V domains shown)
VH: QVTLKESGPGILQPSQTLSLTCSFSGFSLSTSGMGVGWIRQPSGKGLEWLAHIWWDDVKRYSPALKSRLTISKDTSSSQLFLKIASVDTADTATYYCARIKSVITTGDYALDYWGQGTSVAVSS
VL: DIQMTQSPASLSVSVGETVTITCRASEIIYSNLAWYQQKQGKSPQLLVYSATNLAEGVPSRFSGSGSGTQYSLKINSLQSEDFGSYYCQHFWGNPWTFGGGTKLEIKR
notes: also called MAb 8C11; HRP-8C11
As for B1, the binding result in the assay with C149-mut-8C11, with 7-peptide PVQMPWL, with 7-peptide ITNDFKQ, with 7-peptide SLPTLTL and with 7-peptide HPTLLRI was “binds” each time.

B2: monoclonal antibody 13D8 (antibody, V domains shown)
VH: DVQLQESGPGLVKPSQSLSLSCSVTGYSITSGYYWNWIRQFPGNKLEWMGYIGYDGSNKYNPSLKNRISITRDTSKNQFFLKLTSVTTGDTATYYCVRDVKYYFDYWGQGTTVTVSS
VL: DIQMTQSPASLSVSVGETVTITCRASENIYSNLAWYQQKQGKSPQLLVYAATNLADGVPSRFSGSGSGTQYSLKISSLQSEDFGSYYCQHFWGSPWTFGGGTKLEIKR
notes: also called MAb 13D8; HRP-13D8
Take B2: the binding result with 7-peptide SLVTGIL, with 7-peptide VSWNSLV, in the assay with 7-peptide NHWASPR, in the assay with 7-peptide SSYEWFI, with 7-peptide SAPSSKN and with 7-peptide INQKPTL was “binds” in each case. For the same molecule, the binding result in the assay with 7-peptide SSMFFYR and with 7-peptide YQDSAKT was “binds” each time.

B3: monoclonal antibody 8H3 (antibody, V domains shown)
VH: QVQLKESGPGLVAPSQSLSITCTVSGFSLIGYGVNWVRQPPEKGLEWLGMIWGDGSTDYNSALKSRLSITKDNSKSQVFLKMNSLQTDDTARYYCAMGVRPDPFDYWGQGTLVTVSA
VL: NIMMTQSPSSLAVSAGEKVTMSCKSSQSVLYSSNQKNYLAWYQQKPGQSPKLLIYWASARESGVPDRFTGSGSGTDFTLTINSVQTEDLAVYYCHQYLSSYTFGGGTKLEIKR
notes: also called MAb 8H3; HRP-8H3
As for B3, the “8C11 increases 8H3's reactivity” value with polypeptide 209 is 3 fold. Also, the binding result in the assay with C149-mut-8H3, with 7-peptide STLFMNF, with 7-peptide SAHVLST, in the assay with 7-peptide SPPNVRT, in the assay with 7-peptide SPKMPIL and in the assay with 7-peptide ALWGPTS was “binds” throughout.

The values are drawn from US20060233822A1 (YANG SHENG TANG, published 2006).
